Data taken from paper PMC10810221, “DELTEX E3 ligases ubiquitylate ADP-ribosyl modification on nucleic acids”.

Target: DTX3L RD (RING-DTC) (Homo sapiens, UniProt Q8TDB6 544-740)
Experiment: EMSA; 5 mM Mg2+; protein 0.5, 1, 2 uM; RNA 0.5 uM; EMSA: 20 mM HEPES pH 7.5, 50 mM KCl, 5 mM MgCl2, 1 mM DTT, on ice 0.5 h, 6% native PAGE
Conditions: protein: recombinant; label: 3' Cy3; single strand

Sequence of DTX3L RD (RING-DTC) (Q8TDB6 544-740): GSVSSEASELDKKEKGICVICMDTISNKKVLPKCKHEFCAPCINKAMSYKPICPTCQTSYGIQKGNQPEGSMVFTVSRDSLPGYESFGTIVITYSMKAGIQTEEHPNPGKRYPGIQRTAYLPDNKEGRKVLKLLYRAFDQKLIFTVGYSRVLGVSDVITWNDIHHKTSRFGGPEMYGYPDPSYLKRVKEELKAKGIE

GUGGCGCGGAGACUUAGAGAAAUUGUGAUCAGGAA (ssRNA, 5' phosphate) [E35_5'P_RNA_3Cy3]: no binding.
